Substrate in this series: NCCNCCNCCN
Kind of series: not read.

B1: Thialysine N-epsilon-acetyltransferase (Homo sapiens) (protein)
chain: MASVRIREAKEGDCGDILRLIRELAEFEKLSDQVKISEEALRADGFGDNPFYHCLVAEILPAPGKLLGPCVVGYGIYYFIYSTWKGRTIYLEDIYVMPEYRGQGIGSKIIKKVAEVALDKGCSQFRLAVLDWNQRAMDLYKALGAQDLTEAEGWHFFCFQGEATRKLAGK
With B1, the Km was 2500 µM and the Vmax was determined as 3.96 µmol/min/mg.

The values are drawn from ChEMBL document CHEMBL3526099, “Metabolism of triethylenetetramine and 1,12-diamino-3,6,9-triazadodecane by the spermidine/spermine-N(1)-acetyltransferase and thialysine acetyltransferase” (Drug Metab Dispos, 2013).
